Reference: paper PMC10447426 (2023)

Columns and labels:
[1] = target: T1, Fc fusion protein of mouse TNFR2 (mouse, UniProt P25119 23-258); test: SPR
T1 chain: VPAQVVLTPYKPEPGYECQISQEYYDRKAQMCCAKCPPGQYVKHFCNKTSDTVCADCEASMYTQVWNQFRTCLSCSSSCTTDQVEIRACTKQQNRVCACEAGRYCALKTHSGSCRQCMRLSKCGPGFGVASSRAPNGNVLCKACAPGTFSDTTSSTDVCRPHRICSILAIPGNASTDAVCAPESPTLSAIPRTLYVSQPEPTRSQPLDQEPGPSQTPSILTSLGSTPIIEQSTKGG

[2] = target: T1, Fc fusion protein of mouse TNFR2; test: SPR; BIAcore X-100; Fc fusion proteins of mouse TNFR2 and mouse TNFR1 immobilised on CM5 chip by amine coupling; HBS-EP plus running buffer; single-cycle kinetics, five concentrations up to 100 nM, 2 min injection at 30 μl/min, 2 min dissociation; R2agoTNF fitted with a monovalent and scR2agoTNF-Fc with a bivalent model (avidity); n = 1

B1: R2agoTNF (ligand)
chain: VRSSSRTPSDMPVAHVVANPQAEGQLQWTNHGGNALLANGVELRDNQLVVPSEGLYLIYSQVLFSGQGCPSTHVLLTHTISRIAVSYQTPVNLLSAIRSPCQRETPEGAEANPWYEPIYLGGVFQLEPGDRLSAEINRPDYLNFPDSGEVYFGIIAL
[1]
  koff: 0.00277 s⁻¹
[2]
  Kd: 1.75 nM
